Reference: US20220348609A1 (University of Washington, published 2022)
Substitutions are numbered along the chain they refer to. One block for each binder: values may come before it.

Tests used:
[1] = biological target: T1, human αvβ6 integrin on cells (A431 carcinoma cells; K562 cells stably transfected with αvβ6) (human, UniProt P06756 31-1048; P18564 22-788); assay: cell-based or functional assay
[2] = biological target: T2, αvβ1 integrin on stably transfected K562 cells (UniProt P06756 31-1048; P05556 21-798, limits assumed); assay: cell surface binding on stably transfected K562 cells
T2 construct: whole, on cells; also called avb1; alpha(v) beta (1) integrin

[3] = biological target: T3, αvβ3 integrin on stably transfected K562 cells (UniProt P06756 31-1048; P05106 27-788, limits assumed); assay: as above
T3 construct: whole, on cells; also called avb3; alpha(v) beta (3) integrin
T3 sequence (P06756 31-1048 limits assumed, chain 1 of 2): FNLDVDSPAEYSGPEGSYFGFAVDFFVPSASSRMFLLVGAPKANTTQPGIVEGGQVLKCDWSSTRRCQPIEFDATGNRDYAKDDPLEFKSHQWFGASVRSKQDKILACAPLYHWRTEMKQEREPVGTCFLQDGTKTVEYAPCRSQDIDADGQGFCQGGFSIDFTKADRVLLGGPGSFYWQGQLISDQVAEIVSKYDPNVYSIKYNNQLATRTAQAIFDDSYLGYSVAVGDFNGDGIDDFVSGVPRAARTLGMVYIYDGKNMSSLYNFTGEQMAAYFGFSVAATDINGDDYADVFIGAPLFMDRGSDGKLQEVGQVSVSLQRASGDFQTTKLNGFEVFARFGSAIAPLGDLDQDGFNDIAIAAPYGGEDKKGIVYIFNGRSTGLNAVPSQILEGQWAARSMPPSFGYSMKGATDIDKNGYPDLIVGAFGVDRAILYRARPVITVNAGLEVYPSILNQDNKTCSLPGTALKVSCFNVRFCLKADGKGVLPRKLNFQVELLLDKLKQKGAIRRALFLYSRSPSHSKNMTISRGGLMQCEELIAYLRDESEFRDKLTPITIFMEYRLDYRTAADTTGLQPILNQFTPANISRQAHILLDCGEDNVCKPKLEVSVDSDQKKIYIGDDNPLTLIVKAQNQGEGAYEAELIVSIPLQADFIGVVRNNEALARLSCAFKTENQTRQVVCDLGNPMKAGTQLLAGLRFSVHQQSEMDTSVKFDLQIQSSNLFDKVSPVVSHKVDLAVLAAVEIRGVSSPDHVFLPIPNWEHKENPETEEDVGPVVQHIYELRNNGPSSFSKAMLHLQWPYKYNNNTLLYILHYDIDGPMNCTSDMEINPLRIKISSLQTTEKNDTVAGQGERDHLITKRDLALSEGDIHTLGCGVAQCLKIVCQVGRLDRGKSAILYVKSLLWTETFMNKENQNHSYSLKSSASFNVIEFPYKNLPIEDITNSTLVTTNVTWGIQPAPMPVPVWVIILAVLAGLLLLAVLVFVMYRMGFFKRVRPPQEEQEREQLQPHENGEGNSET
T3 sequence (P05106 27-788 limits assumed, chain 2 of 2): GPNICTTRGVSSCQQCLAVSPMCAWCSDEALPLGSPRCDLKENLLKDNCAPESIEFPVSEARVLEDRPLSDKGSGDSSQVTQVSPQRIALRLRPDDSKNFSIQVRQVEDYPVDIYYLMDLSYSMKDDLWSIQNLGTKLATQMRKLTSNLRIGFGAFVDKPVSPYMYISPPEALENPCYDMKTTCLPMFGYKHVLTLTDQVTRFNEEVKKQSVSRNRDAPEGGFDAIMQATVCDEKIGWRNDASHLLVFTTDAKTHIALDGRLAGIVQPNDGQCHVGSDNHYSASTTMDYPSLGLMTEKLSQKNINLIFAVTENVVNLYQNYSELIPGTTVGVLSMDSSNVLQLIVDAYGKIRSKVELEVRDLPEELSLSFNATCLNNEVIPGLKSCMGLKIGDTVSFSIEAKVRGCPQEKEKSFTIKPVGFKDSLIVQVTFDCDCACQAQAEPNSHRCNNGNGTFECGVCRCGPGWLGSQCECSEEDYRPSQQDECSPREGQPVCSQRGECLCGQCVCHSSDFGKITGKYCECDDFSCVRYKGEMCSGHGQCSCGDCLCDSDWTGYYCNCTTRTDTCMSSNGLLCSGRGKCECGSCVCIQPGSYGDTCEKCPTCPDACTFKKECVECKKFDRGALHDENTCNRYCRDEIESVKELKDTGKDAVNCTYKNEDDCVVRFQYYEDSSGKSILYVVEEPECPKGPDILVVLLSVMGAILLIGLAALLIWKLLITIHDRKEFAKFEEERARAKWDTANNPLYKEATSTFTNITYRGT

[4] = biological target: T4, αvβ5 integrin on stably transfected K562 cells (UniProt P06756 31-1048; P18084 24-799, limits assumed); assay: as above
T4 construct: whole, on cells; also called avb5; alpha(v) beta (5) integrin
T4 sequence (P06756 31-1048 limits assumed, chain 1 of 2): as the sequence (P06756 31-1048 limits assumed, chain 1 of 2) above
T4 sequence (P18084 24-799 limits assumed, chain 2 of 2): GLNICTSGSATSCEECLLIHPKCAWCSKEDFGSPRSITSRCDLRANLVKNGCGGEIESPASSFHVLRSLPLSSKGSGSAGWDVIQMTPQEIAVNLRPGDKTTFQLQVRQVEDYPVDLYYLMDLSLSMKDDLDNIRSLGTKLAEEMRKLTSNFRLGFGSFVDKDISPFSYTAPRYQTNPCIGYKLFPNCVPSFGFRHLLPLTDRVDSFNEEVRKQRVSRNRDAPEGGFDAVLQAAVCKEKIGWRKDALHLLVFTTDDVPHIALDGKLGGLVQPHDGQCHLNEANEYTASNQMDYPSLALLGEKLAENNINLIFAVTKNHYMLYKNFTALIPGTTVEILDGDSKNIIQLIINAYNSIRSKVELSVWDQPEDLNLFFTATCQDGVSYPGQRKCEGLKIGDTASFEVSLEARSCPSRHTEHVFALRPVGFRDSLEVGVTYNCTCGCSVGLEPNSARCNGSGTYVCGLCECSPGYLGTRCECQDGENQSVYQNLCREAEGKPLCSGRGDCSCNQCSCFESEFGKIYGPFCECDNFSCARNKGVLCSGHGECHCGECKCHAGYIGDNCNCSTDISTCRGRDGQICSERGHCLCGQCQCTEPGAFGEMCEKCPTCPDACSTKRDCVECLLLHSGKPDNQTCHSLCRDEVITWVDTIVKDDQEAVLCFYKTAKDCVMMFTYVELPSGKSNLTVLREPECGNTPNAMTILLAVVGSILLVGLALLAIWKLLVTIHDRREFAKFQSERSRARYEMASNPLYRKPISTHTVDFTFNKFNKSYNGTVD

[5] = biological target: T5, α5β1 integrin on stably transfected K562 cells (UniProt P08648 42-1049; P05556 21-798, limits assumed); assay: as above
T5 construct: whole, on cells; also called a5b1; alpha 5 beta 1

[6] = biological target: T6, α8β1 integrin on stably transfected K562 cells (UniProt P53708 39-1063; P05556 21-798, limits assumed); assay: as above
T6 construct: whole, on cells; also called a8b1; alpha 8 beta 1

[7] = biological target: T7, αiibβ3 integrin on stably transfected K562 cells (UniProt P08514 32-1039; P05106 27-788, limits assumed); assay: as above
T7 construct: whole, on cells; also called aiibb3; alpha (iib) beta (3) integrin

[8] = biological target: T8, human αvβ6 integrin, soluble protein (biotinylated for yeast display; in solution for BLI) (human, UniProt P06756 31-992; P18564 22-707, limits assumed, biotinylated in the yeast display experiments (site not stated)); assay: BLI (Octet RED96), His-tagged binder on Ni-NTA sensor, αvβ6 in solution
T8 construct: also called avb6; alpha(v) beta (6) integrin
T8 sequence (P06756 31-992 limits assumed, chain 1 of 2): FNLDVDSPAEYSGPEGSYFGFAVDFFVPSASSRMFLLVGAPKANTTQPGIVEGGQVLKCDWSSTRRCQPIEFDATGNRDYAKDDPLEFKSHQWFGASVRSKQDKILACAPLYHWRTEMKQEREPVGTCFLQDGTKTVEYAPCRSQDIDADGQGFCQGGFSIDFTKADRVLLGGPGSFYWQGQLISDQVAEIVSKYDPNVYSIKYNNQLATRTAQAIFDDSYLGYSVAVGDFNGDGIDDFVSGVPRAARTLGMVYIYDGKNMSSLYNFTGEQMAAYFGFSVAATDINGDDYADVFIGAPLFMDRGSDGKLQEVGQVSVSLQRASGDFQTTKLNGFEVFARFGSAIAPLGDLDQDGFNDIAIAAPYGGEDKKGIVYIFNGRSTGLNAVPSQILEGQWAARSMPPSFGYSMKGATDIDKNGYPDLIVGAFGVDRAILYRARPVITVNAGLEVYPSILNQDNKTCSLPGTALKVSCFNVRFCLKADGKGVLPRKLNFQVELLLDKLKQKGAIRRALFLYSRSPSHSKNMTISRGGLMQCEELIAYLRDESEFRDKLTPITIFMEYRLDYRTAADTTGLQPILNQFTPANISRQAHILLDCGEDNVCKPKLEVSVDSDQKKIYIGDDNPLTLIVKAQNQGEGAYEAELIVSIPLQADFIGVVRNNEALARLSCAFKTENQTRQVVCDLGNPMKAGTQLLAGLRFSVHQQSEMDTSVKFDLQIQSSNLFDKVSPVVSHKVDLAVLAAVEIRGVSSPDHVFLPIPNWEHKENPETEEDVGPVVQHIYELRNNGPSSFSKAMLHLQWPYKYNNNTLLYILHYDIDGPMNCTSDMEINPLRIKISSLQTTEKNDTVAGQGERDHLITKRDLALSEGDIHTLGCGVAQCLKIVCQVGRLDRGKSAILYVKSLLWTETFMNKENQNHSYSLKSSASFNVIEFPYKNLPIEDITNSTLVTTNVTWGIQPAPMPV
T8 sequence (P18564 22-707 limits assumed, chain 2 of 2): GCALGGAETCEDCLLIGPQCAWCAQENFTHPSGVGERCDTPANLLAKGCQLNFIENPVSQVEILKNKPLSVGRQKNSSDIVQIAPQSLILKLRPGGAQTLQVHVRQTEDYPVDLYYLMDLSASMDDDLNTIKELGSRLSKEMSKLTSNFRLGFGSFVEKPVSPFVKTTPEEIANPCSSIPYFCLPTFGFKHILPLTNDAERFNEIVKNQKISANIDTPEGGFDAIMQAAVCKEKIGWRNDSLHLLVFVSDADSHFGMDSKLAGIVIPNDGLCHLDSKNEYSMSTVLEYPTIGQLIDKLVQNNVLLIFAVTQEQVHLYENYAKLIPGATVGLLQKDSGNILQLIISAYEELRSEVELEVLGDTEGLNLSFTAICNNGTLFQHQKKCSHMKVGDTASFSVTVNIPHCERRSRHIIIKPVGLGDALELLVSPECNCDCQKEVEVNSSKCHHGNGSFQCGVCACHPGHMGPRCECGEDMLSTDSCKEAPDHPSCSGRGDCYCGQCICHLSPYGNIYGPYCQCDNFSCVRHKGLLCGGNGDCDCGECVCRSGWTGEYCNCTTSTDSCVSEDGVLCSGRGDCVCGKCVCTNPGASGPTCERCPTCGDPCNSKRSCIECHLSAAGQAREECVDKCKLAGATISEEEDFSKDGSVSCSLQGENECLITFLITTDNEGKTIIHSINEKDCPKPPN
Method: (§1) Data was collected on an Octet™ RED96 (Forte Bio) and processed using the instrument's software. His Tagged protein binders were immobilized on Ni-NTA octet sensors. The tips are then dipped into wells containing different concentrations of αᵥβ₆. Association and dissociation steps were recorded for 900 s and 1200 s respectively. An empty sensor with no loaded binding protein was included to discard any non-specific binding of αᵥβ₆ to the octet tip.

[9] = biological target: T8, human αvβ6 integrin, soluble protein …; assay: BLI titration of purified protein against αvβ6 (FIG. 2f,g); BLI, purified BP1 against αvβ6
Method: as §1

[10] = biological target: T9, human αvβ8 integrin on cells (K562 cells stably transfected with αvβ8; HeLa b8 cells in the TMLC assay) (human, UniProt P06756 31-1048; P26012 43-769); assay: cell surface titration on K562 cells stably transfected with αvβ8; K562 cells with αvβ8; BP1 lacking A39K
T9 construct: whole, on cells; also called avb8; alpha(v) beta (8) integrin

[11] = biological target: T1, human αvβ6 integrin on cells (A431 …); assay: cell surface binding assay on K562 cells stably expressing αvβ6/αvβ8; reference αvβ8
[12] = biological target: T8, human αvβ6 integrin, soluble protein …; assay: BLI titration of purified protein against αvβ6 (FIG. 2f,g); BLI, purified BP2 against αvβ6
Method: as §1

[13] = biological target: T8, human αvβ6 integrin, soluble protein …; assay: binding assay not named

T1 sequence (P06756 31-1048, chain 1 of 2): as the sequence (P06756 31-1048 limits assumed, chain 1 of 2) above
T1 sequence (P18564 22-788, chain 2 of 2): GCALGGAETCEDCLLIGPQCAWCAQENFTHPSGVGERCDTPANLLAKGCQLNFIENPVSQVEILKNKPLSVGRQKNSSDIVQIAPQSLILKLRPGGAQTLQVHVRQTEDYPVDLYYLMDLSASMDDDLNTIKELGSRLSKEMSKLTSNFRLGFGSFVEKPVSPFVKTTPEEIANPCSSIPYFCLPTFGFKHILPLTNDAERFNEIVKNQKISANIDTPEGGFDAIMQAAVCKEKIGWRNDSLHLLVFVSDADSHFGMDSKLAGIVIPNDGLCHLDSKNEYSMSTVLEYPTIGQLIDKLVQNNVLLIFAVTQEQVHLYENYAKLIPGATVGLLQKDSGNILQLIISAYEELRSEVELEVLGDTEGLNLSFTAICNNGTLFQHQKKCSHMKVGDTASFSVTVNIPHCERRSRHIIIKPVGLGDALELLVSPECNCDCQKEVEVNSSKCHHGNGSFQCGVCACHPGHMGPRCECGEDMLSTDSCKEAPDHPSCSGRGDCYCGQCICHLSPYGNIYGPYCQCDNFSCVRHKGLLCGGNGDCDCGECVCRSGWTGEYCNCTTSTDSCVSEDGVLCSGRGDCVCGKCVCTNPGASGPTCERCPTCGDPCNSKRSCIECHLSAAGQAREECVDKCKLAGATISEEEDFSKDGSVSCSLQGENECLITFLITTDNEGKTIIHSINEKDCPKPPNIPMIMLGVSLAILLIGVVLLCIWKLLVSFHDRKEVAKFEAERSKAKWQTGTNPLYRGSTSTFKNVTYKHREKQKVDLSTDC

IC50 of the block of αvβ6 mediated TGF-β activation, TMLC luciferase reporter co-culture assay [1]: 0.199 nM
binding result [2]: no binding (tested: up to 200 nM)
binding result [3]: no binding (tested: up to 200 nM)
binding result [4]: no binding (tested: up to 200 nM)
binding result [5]: no binding (tested: up to 200 nM)
binding result [6]: no binding (tested: up to 200 nM)
binding result [7]: no binding (tested: up to 200 nM)
Kd [8]: 0.334 nM
Kd [9]: < 1 nM
Kd [10]: ~7.3 nM
B1: BP1 (av6_3_E13T) (designed binder)
chain: MAVVRFVFRGDLATLMLRAVKDHLKKEGPHWNITSTNNGAELVVRGIHESDAKRIAKWVEKRFPGVHTETQQD
notes: also called BPI; not shown: C-terminal His tag (pET29b, NdeI/XhoI)

IC50 of the block of αvβ6 mediated TGF-β activation, TMLC luciferase reporter co-culture assay [1]: 0.151 nM
binding result [2]: no binding (tested: up to 200 nM)
binding result [3]: no binding (tested: up to 200 nM)
binding result [4]: no binding (tested: up to 200 nM)
binding result [5]: no binding (tested: up to 200 nM)
binding result [6]: no binding (tested: up to 200 nM)
binding result [7]: no binding (tested: up to 200 nM)
Kd [8]: 0.414 nM
fold specificity towards αvβ6 over αvβ8 [11]: > 5000 fold
Kd [12]: < 1 nM
B2: BP2 (av6_3_A39KG64R) (designed binder)
chain: B1 chain with T14E, A40K, G65R
notes: not shown: C-terminal His tag (pET29b, NdeI/XhoI)

binding result [13]: no binding
B3: BP2_disulf with knockout mutation of the RGD to KGE (designed binder)
chain: MTKCVVRFVFKGELAELMLRAVKDHLKKEGPHWNITSTNNGKELVVRGIHESDAKRIAKWVEKRFPRVHTETQCD
notes: if the listing entry starts with Met they are 11 and 13; also called KGE knockout of BP2_disulf
